Laboratory results taken from paper PMC7935953 (2021).

Target: His-LC3A (human, UniProt Q9H492 1-121)
Test: ITC

- Kd: 20.4 µM
B1: hEPG5-LIR1 peptide (peptide)
peptide: GSGTWTLVDEG
